Experimental data reported in patent US5885831.

Tests used:
[1] = biological target: LexA-TIM1 (Drosophila melanogaster); assay: yeast two-hybrid, β-galactosidase activity of liquid cultures, LexA-TIM1, 28 C
[2] = biological target: LexA-TIM1 (Drosophila melanogaster); assay: yeast two-hybrid, β-galactosidase activity of liquid cultures, LexA-TIM1, 35 C
[3] = biological target: LexA-TIM1 (Drosophila melanogaster); assay: yeast two-hybrid, β-galactosidase activity of liquid cultures, LexA-TIM1, 22 C

For VP16-PER^L233-685 (from UniProt P07663), which fold change of the TIM interaction signal (β-galactosidase activity) against the wild type PER fragment [1] is on record?
Its fold change of the TIM interaction signal (β-galactosidase activity) against the wild type PER fragment is 1.8 fold higher.

What about the fold change of the TIM interaction signal (β-galactosidase activity) against the wild type PER fragment [2] of the same substance?
Its fold change of the TIM interaction signal (β-galactosidase activity) against the wild type PER fragment is 4.8 fold lower.

And the fold change of the TIM interaction signal (β-galactosidase activity) against the wild type PER fragment [3]?
Its fold change of the TIM interaction signal (β-galactosidase activity) against the wild type PER fragment is 3.4 fold higher.
